Numbering of substitutions follows the chain as printed.
B1: COV2-2531 (antibody, V domains shown)
VH: QVQLQESGPGLVKPSETLSLTCSVSGGSIRSYFWNWVRQPPGKGLEWIGYIYYSGSTNYKPSFKSRVTISLDTSKNQISLKLSSVTAADTAVYYCARATWLRDAFGIWGQGTMVTVSS
VL: NFMLTQPHSVSESPGKTVTISCTGNSGSIASNYVQWYQQRPGSAPTTVIYEDSQRPSGVPDRFSGSIDSSSNSASLTISGLKTEDEADYYCQSFDSGNVVFGGGTKLTVL
B2: COV2-2531 Fab (Fab, V domains shown)
VH: B1 VH
VL: B1 VL
B3: C126 (antibody, V domains shown)
VH: QVQLQESGPGLVKPSETLSLSCAVSGGSIGSYFWSWIRQPPGKGLEWIGYLHYSGSTNYNPSLKSRVTISVDTSKNQFSLKLSSVTAADTAVYYCARLQWLRGAFDIWGQGTMVTVSS
VL: B1 VL with N25S, Y50N, S53N, F94Y, G97S, V99L
B4: C126 Fab (Fab, V domains shown)
VH: B3 VH
VL: B1 VL with N25S, Y50N, S53N, F94Y, G97S, V99L
B5: COV2-2002 (antibody, V domains shown)
VH: EVQLVESGGGLVQPGGSLRLSCAASGFTFSFYWMSWVRQAPGKGLEWVANIKQDGSEKYYVDSVKGRSTISRDNAKNSLYLQMNSLRAEDTAVYYCARVGSSSWYFDYWGQGTLVTVSS
VL: not shown
B6: COV2-2333 (antibody, V domains shown)
VH: B5 VH with F31I, E46Q, G55A, S68F, V99L, S101G, Y105H
VL: SYELTQPPSVSVSPGQTASITCSGDKLGDKYSSWYQQKPGQSPVLVIYEDTKRPSGIPERFSGSNSGNTATLTISGTQAMDEADYYCQAWSSSTAVFGGGTKLTVL
B7: CnC2t1p1_B10 (antibody, V domains shown)
VH: QVQLVQSGAEVKKPGSSVKVSCKASGGTFSSYAISWVRQAPGQGLEWMGGIIPIFGTANYAQKFQGRVTITADKSTSTAYMELSSLRSEDTAVYYCARVSGYDSSGYWGDYWGQGTLVTVSS
VL: EIVLTQSPATLSLSPGERATLSCRASQSVSSYLAWYQQKPGQAPRLLIYDASNRATGIPARFSGSGSGTDFTLTISSLEPEDFAVYYCQQRSNWPPALTFGGGTKVEIK

Key:
[1] = target: full-length SARS-CoV-2 S protein expressed in HEK293T cells (SARS-CoV-2, Wuhan-Hu-1, UniProt P0DTC2); test: flow cytometry on cells
[2] = target: variant of S6P_(ecto) protein containing a C-terminal Twin-Strep-tag (SARS-CoV-2, Wuhan-Hu-1 (assumed), UniProt P0DTC2, stabilised); test: negative stain electron microscopy

Binder | binding result [1] | binding result [2]
B1 | binds | 
B2 |  | binds
B3 | binds | 
B4 |  | binds
B5 | binds | 
B6 | binds | 
B7 | binds | 

Reference: paper PMC8352653 (Cell Reports, 2021)
